Test results: US20130177660A1 (NATIONAL UNIVERSITY CORPORATION NAGOYA UNIVERSITY, published 2013)

Molecular target: T1, Flag-RFP (Flag-tagged RET finger protein) (Homo sapiens, UniProt P14373 1-513)
T1 construct: Expressed by transient transfection in HEK293 cells and tested in cell lysates by co-immunoprecipitation; also called TRIM27; pFlag-RFP; not shown: Flag tag from the pFlag vector
T1 sequence: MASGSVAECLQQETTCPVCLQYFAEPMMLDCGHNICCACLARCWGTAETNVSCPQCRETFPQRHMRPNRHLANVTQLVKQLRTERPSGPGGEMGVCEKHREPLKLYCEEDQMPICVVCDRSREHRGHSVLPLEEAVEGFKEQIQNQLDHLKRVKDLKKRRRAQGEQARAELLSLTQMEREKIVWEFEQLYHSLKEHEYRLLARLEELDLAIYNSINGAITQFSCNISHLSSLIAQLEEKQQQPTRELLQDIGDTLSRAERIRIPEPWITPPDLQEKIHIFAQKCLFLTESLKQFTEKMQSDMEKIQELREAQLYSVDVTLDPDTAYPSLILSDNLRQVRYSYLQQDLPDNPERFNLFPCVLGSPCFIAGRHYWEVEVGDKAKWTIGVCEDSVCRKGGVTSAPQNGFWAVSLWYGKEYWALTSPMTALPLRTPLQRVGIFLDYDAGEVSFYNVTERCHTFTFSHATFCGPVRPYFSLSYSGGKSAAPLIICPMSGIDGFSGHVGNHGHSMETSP
Assay: co-IP from HEK293 cells co-transfected with GFP-RFP and Flag-RFP; anti-Flag IP, anti-GFP blot
Description: FIG. 7 RFP Oligomerization (a) RFP forms homo-oligomer, HEK293 cells were co-transfected with GFP-RFP and Flag-RFP, and immunoprecipitated with anti-Flag antibody followed by immunoblotting with anti-Flag and anti-GFP antibodies. Anti-HA antibody was used as mock. WCL: whole cell lysates. (b) Ring-B-box and Coiled-coil domains, but not Rfp domain, of RFP were required for its oligomerization. HEK293 cells were co-transfected with GFP-RFP and Flag tagged RFP deletion constructs, and immunoprecipitated with anti-Flag antibody. The pFlag vector was used as control. Arrow heads indicate Flag-tagged RFP constructs.

binding result: binds
B1: GFP-RFP (other)
chain: T1 sequence
notes: RFP cDNA inserted into the pEGFP-C1 vector; also called RFP in pEGFP-C1; not shown: GFP (EGFP of the pEGFP-C1 vector) and linker
